Measurements published in a protein production outcome set (Wang et al. 2014).

assay: label from the status in PepcDB records
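Further: failed if final PepcDB status was selected cloned or expressed and not failed if soluble or beyond.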

Row | Sequence | protein production
1 | MIDRRRVRHSFHRQALEYDAHAAVQKRVVERFLQILDDEVGSPLRILDVGAGTGLLARQLADCHPAALLSCVDLAPGMAATARQRLGSRALVAVADAEHLPFAGASFDCVVSTSTFQWLTTLDAAFGEVWRVLAPGGLFAFALFGHGTFHELKDSYRSALTAVGREDEDRTQRFFTEAEAGAALERTGFGVRRLCVEDEVEWHPDVPAFLRSVKRVGAGNASPLRGRGLAERRVMVEMMRVYGERYGGERGIPATYTVIYGVGVKSGRK | failed
2 | MIDTIIISLIAFSILVSLWRGFISEVLSLSGWIAAFFVASTFYPYLSSYLNEIDSVYLQNSEYLRNGIAAAILFIITLILCGIVNALLSKIINTTGLSATDRVLGIAFGALRGILIVAAILFFIDTFTTSNQTELWQESQLIPHFDFIVKWFFEQLQANSSFLNSTTTTK | failed
3 | MIDTLKNIKVKDVMTKNVITAKRHEGVVEAFEKMLKYKISSLPVIDDENKVIGIVTTTDIGYNLIRDKYTLETTIGDVMTKDVITIHEDASILEAIKKMDISGKKEEIINQLPVVDKNNKLVGIISDGDIIRTISKII | not failed
4 | MIEEAPPHPSAPMAASPSVTTALKHAPLGIAIFDNQMRYLAASRQYLTDQHLPPDLPLIGRLHYDAFPEVPQKWRDLHARVLAEGVELRHEGDPYVDREGRTQWIRWSMAPWRTDGGGIGGLVLYTEVVT | failed
5 | MIEFLLNYYFMPFNLSVIALLILSMAETIGIYIGLRPSTFLKKFLPRWLSNSPLVNVKFSKVLILVFFLINFSFAGYFLQLCVFAQQQFFISPFYLIIPALIIGIFFTVFMIHCLDQVIKPQVEHQYSSLLGRLATISSGSARPGFSAQARVRDEFGQLHYVQVEPEFGELELQSQVILIRFRQTHYIAKRISASNHLFTPE | failed
6 | MIEIKTLTNNDFNEYKRLVSTVNEEFTQDSHYSQTMTDTLIHDILNQGSPKCIVFGCYENETLIATAALEQIRYVGKEHKSLIKYNFVTNNDKSINSELINFIINYARQNNYESLLTSIVSNNIGAKVFYSALGFDILGFEKNAIKIGNTYFDEHWLFYDLINK | failed
7 | MIEKIVKEMTLKEKVGQLNQHLYGWQCYQKVNGKYELTDLFKEHVKEYGGVGAIYGILRADAWSQINRENGISREDSKIVITMIQEYIKKHSRFEIPALISEECVHGHMALGAPVFPTNLAMGMTWNPDLMERITHNVSQELAAKGGNLALFTGFDVLRDPRWGRSEECFSEDAYLTSCMTSAAVHGFQKEKNGVAVVVKHLCAQGGCVGGHNSDAALIGPRELREIHLPPVKAAIDAGAKAVMAAYNEIDGIPCHINKALLFETLRKEYDFSGIVMADGCALDRLLLLDDDILKVGSLALKAGVDLSLWDNVYLRLDEAIKQGYLTEEELDQAVLRVLRLKEELGLWEELNTYSLPEASDLLLQAARECQVLLKNNDSLLPLSSKQKIAVIGPNANHYLNQLGDYTAYQNKSDIVTVYDGICQKTEISPIYVQGCSIRGRKFDIEPALVAAKAADIVILVLGGNSTRLYQDTFENNGAVKANQENQMNCGENIDLASLELEGYQNELLLALKEVNPHIVTVLIQGRPHVINTVLKHSQAVLASFYPGSRGGEGIADVLFGDYNPSGHLSVSIPQHVGQLPCYYNHKHNGAQKDYVDMPGEALLPFGYGLSYSQFIYRDIKVPKAIKITDLLENGIDLQLEIYNNSTYDGEDVIQVYLKDHQASVVSRVIELKAFNKVKIQAYQSKQISIHLTSDAFAIWNYEMKYLVEPGDVSICIGVDSKHYQEFKLTLVK | failed
8 | MIELIIGAVLLSLLIYGIFIEPHLMKVRHVKIAQKQNLKIAHFTDTHFAWHTTSRRFKKFARNIANEQPDLIIFSGDLFDKVAWAKNRDWTDLLTILSELKAPLGKFAILGNHDFDDEKSSRFVEEFLEKAGFVLLKNSSVVKDNLSISGVDDWREGRPDFELEPIDATFSLLALHEPDTILDMETIKEFDLILSGHSHGGQIRIGNWRLRNKGSSSADAGLYQLNDRTKLYVNRGIGLTFLPIRFGVPPEIVYYYI | failed
9 | MIENSSPYTSEHFHYTVTDIKDLTKLGAIYDKTKKYWVYQGKPVMPDQFTFELLDFLHQLTHLSFSKMKALLERSHSPYYMLNRDRTLKNITETCKACAQVNASKSLEHHHHHH | not failed
10 | MIEQELTYQDLRIPSSEIYEAMGYKDSIPDQMVIDETNTLLKRVIPLLRPRFAFFFMEGTLDIEKETLSVQSIHPPTVNPIQDTIPTRSPEQNTFSTQSKSTVFSVGKTIARQLRGSEAFVFFAATAGTEFEVFQHTLQQEEDMVKIYIADSLGSIIAEKTADCMEVALAEYIREKNWKHTNRYSPGYCGWHVSEQQKLFPLFPIAAPCGIRLTDSSLMVPIKSVSGVIGTGTNVRKLEYTCGLCTYENCYRKRKHRLEHHHHHH | failed
11 | MIERLELRNLTVFTGLTLELSPKINVIIGENGTGKTHLLKAAYGLCAGAPLFKNKPDTGDDELEAALTAKLLRLFMPLDDKLGKMHRQGATDQAYLSAKFAGGQKIAATFFNNSKALAVQDRANYEKYQAEAVFIPTKEVLSFMKGFNSLYEKYGLSFDQTYQDICLLLDLPEVRPETLHEKSKWAMAEIEGICGGRFVFYGGGKVTFKTENAEYSANSMAEGFRKAGILSRLLETGAIQPGVSGPLFWDEPESNLNPKLMKLLVQILLELSRNGQQIILATHDYVLLKWFDLLMDKGKDDHVRFHSLYRDADTSEIKVASTEDYLKITPNPIDEAFGFLINQEIENDMGGLGK | failed
12 | MIEYRIFRFPMYPLLARFFSSHQQALGVLFALLSAIGFSAKAIFIKLAYVEPVDAVTLLALRMVFSVPFFVFAMLHGRAQATPMARHDWLAVLLLGLVGYYLASFLDFLGLQYISAGLERMILFLYPTMVVLISALVFRAAIGRRVWFALLLSYVGIGLVFVHDFHITSDGLFMGSSLVFASALAYAIYLIGAGHTIARIGSMRFTAYAMTVACLACIAQFLLTHPLDDLQQSTRVYGLSIGMALFSTVMPAFALAAAMRRIGSMQTSMIGALGPVATIYLAYVFLAEQLSLTQLAGSGLVLIGVMMISMRKME | failed
13 | MIFMGNKVKYNLKNVHAAKLTETDSDGTTTFSYAEPKAIPGAVSISLDAEGETSPFYADGIVYFRSVTNNGYSGDLEIALIPEWFRTEILQEKLDAKGVLVENSGVGESVKFALLFEFDGDVNAIRHVLYNCSASRPSIESETKEDTIEPGTETLSITADPRSDGLVKARTGDTTDSGTYTNWYKAVYTPTEEEPEETSGEDESV | failed
14 | MIFYKSKRLAFFLTSDIVLILLSVYLAFSLRFSGDIPSIFYHGMMVSAIILLVLKLSFLFVFRIYKVAWRFFSLNEARKIFIALLLAEFCFFLIFYFFSDFFNPFPRSAIVIDFVLSYMFIGTLRISKRMLVDFKPSRMKEEETPCIVVGATSKALHLLKGAKEGSLGLFPVGVVDARKELIGTYCDKFIVEEKEKIKSYVEQGVKTAIIALRLEQEELKKLFEELVAYGICDVKIFSFTRNEARDISIEDLLARKPKDLDDSAVAAFLKDKVVLVSGAGGTIGSELCKQCIKFGAKHLIMVDHSEYNLYKINDDLNLYKEKITPILLSILDKQSLDEVLKTYKPELILHAAAYKHVPLCEQNPHSAVINNILGTKILCDSAKENKVAKFVMISTDKAVRPTNIMGCTKRVCELYTLSMSDENFEVACVRFGNVLGSSGSVIPKFKAQIANNEPLTLTHPDIVRYFMLVAEAVQLVLQAGAIAKGGELFVLDMGKPVKIIDLAKKMLLLSNRNDLEIKITGLRKGEKLYEELLIDENDAKTQYESIFVAKNEKVDLDWLNKEIENLQICEDISEALLKIVPEFKHNKEGV | failed
15 | MIGALRHACPGSRAAAFVLSGLQTMTNEVKSAVRVIQILEYFDTVRREAGVLEISRALGFPASSTAGILRSLQRLSYLVQDEQRLYRPTPRVTLLGSWIDPLLAHDGPLMALMSHLSKATGETIILALQVDAGARYIHIIPSTQRVRLHVNVGDVRPLLTSGTGRLFVSTMEPDQVRRAVFRHNALRGANEPEINLSTVTRDATQIRKNGYATSLDRLVPGVGIIAALLPEREGTRPMAVAVGGPSVTIRARTAELASLLREGIGQYLPHLGNAGDQS | failed
16 | MIGELVKDKILIKNIEDARLIYKMGYYGKPIGISKPKSAEEINSELILSLIEGVYLVKKGKLEIVSNGERLDFERLYQIGVTQIPRFRILYSVYEDLREKGYVVRSGIKYGADFAVYTIGPGIEHAPYLVIALDENSQISSNEILGFGRVSHSTRKELILGIVNLTNGKIRYIMFKWLKM | not failed
17 | MIGHRISRLGSTIVKQLAREGYLATYGTKNLHRSYGHYLQSLPVVPRQARTSQEAWFLKSHKFCTSSTTSSENGDEETEKITIIFVDKDGEEIPVKVPIGMSVLEAAHENDIDLEGACEASLACSTCHVIVMDTEYYNKLEEPTDEENDMLDLAFGLTETSRLGCQVIARPELDGVRLAIPSATRNFAVDGFVPKPH | failed
18 | MIGLSFVSLLTIVCAALGCAVLTWALMPLLIRYALARPNARSSHKVPTPQGAGIAVVAATLAVTALAVGPTTPAFLGLIPLFVAAIVIGIVGAVDDIRPIPVLPRFALQALCVGAVVLTLPSDQQIIPALPLWLERAALLIGGLWFINLVNFMDGLDWMTVAEGLPVTAALLVFGLLGALTQSPMLLAAALGGALLGFAPFNRPGAARVFLGDVGSLPIGLLLGWCLLQLALQGHVAATLLLPLYYLADSTLTLLRRMMRREPFWLAHRSHFYQRATDNGFSVREVVGLVCLTNLALAALAGVSIALNSVAADGLLLAVGAAIVAALLMRFADRKA | failed
19 | MIGQAILLGCIAFIAQSEYALGTSLLSRPIVTGLFVGIVLGDVKTGVIMGATLELAFIGSFSVGASIPPDVVTGGILGTAFAITAGAGTETALVLGLPIATLTLILKNIYLGLLIPIMSQKADQYAEEGAYKGVERMHLLAGFGLSFMLALIVTISFAVGSNTIKGLLDLIPEFIQHGLSVATGIIPALGFAMLARLLINKQVAPYFFLGFVLMAYFKLPVTGVAILGAITAVIVVNIMNYAKGKNETIQTTSGEVIDDDEDF | failed
20 | MIGVITSLTGGAILRNPAVLLIPLIYLVGRRSRDLTYLLFVMYTIITFQFVEVKELISYETIKTTLMAIIPSLLALKESIEGKKLQKTDLYYLPLFFLGVLRDYFYYLGLIIAGLLHIENFHSILIPAAVFSLIISPALVGELIELPGEYISIIMAGSLLVIYLVFQPTRR | failed
21 | MIHADPESAMPAAYAATPFAQRLGLTLPVVQAPMAGVSTPALAAAVSNAGGLGSLGLGAMNADAARQAIALTREQTTRPFNVNLFCHAPATADAAREARWLQYLAPRFAEFDAQPPATLREVYTSFLADDDMFDMLLAERPEVVSLHFGLPPASRIAALRQAGIYLMATATDMREAARIAAAGVDAIVAQGIEAGGHRGMFDPAARDEQLGTLALTRLLARRFDAPVIAAGGIMDGAGVAAVLALGAQAAQLGTAFISCPESSADMPHRHALLDQAEVATTLTRAISGRPARSIANRYTELGAAADCPPTPDYPIAYDAGKALHAAARARGDASYAAQWAGQAAALSRGVPAATLMRQLQAELNDCIGRLAR | failed
22 | MIHDDQKPSSSLDLQEIRIQIDSVDQQIQELINRRATLAEAVAKAKFASEENPLFYRPEREAQVLRKVMERNQGPLSDVTMARLFREIMSACLALEAPQSIAFLGPEGTFTQSAALKHFGKDAVVRPLPTIDEVFREVEAGSAHYGVVPVENSSEGVVNHTLDCFRTSQLNVIGEVELRIHHQFLVSHNTRKDSIKQIYAHQQALAQCRQWLDTHYPGVERVALSSNAEAARRIRNEWHSAAIASDIAASMYDLEIFHSNIEDNPENTTRFLVIGREKIPQSGNDKTSLLISAHDRAGALLEILAPFAKHKISLTSIETRPALPEKWAYVFFIDLEGHIEQENVAAAIDDIRPLVKELRILGSYPAAVL | failed
23 | MIIEYLQLVGLGLVTMLPVANPLTSTTLLLALGSGFTRDERNRQIGRATVYVAAIILASFYAGNAIISSFGISIPGLRIAGGLIVAYIGFTMLFPATSQNEAQAQVEMAPDDPHIQVPGAAHTGPRPRDISFVPLALPGTAGPGTIALIISSASTLHSHGGITLIHHFAVITVTLLLALLFWACLRSAERVMRMLGQSGIDAISRVMGFLLICMGVQFIIDGVFELIRHPPGA | failed
